The target in experiment [1] is T1, biotinylated EpoR (Abbott CHO cell derived ref.# RB69084:4) (UniProt P19235 25-250, limits assumed, biotinylated with biotin-NHS (sites not given)).
T1 construct: also called biotin EpoR; biotin-EpoR
T1 sequence (looked up): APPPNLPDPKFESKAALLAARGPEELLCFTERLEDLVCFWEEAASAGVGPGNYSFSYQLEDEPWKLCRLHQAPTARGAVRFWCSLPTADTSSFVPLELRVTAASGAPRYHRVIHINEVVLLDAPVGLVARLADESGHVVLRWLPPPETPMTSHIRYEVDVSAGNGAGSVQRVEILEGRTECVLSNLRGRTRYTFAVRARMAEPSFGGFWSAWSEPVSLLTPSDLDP
The experiment is described as follows: ELISA, HEK 293 supernatant titrated 1:2 on biotin-EpoR captured on streptavidin plates. (ELISA stands for enzyme-linked immunosorbent assay.)

In experiment [2] the target is T2, soluble human EPO receptor (human, UniProt P19235 25-250).
T2 construct: extracellular domain; Printed only as 'soluble human EPO receptor'
T2 sequence (looked up): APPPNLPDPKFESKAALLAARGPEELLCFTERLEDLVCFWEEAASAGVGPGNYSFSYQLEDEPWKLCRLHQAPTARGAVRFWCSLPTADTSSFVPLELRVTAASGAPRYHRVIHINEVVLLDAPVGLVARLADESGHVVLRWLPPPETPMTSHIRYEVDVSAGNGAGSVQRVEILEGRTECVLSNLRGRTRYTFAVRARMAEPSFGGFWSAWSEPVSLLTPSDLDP
The experiment is described as follows: SPR (Biacore 2000), antibody immobilized on chip, soluble receptor 10-200 nM injected. The protocol: Immobilizations of antibody were performed using the default immobilization program in the Biacore software package. Antibodies were diluted to 10 ug/mL in the supplied acetate buffers to prescreen for the appropriate pH at which to conduct the immobilizations. For immobilizations, antibodies were diluted into the appropriate acetate buffer (10 mM acetate pH 4.0) and coupled directly to the chip surface using standard EDC chemistry at three different protein levels (500, 1000, and 1500 RU). The fourth flow cell was mock coupled with EDC to cap the carboxyl groups and provide a background surface as a negative control.
Binding studies were performed by successive injections of varying concentrations of soluble human EPO receptor over the chip surface (500 RU immobilized protein). […]
Data were fit to the models available in the BiaEvaluation 3.0.2 software package (Biacore). […] Dissociation constants were calculated directly from fitting to the Langmuir binding model. For the bivalent analyte model, the dissociation constants were calculated indirectly using the calculated values for the kinetic dissociation and kinetic association constants, kd and kₐ.

A further experiment has as its target T3, peptide SE-3 (human).
T3 construct: also called SE-3 peptide
T3 peptide: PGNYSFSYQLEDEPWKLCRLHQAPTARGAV
The experiment is described as follows: ELISA on plate-coated peptide SE-3. The protocol: Plates were blocked for 30 minutes at room temperature with 100 ul of 5% BSA in PBS (Gibco (Invitrogen (Carlsbad, Calif.)) Cat.#10010). After removal of blocking solution, 50 ul of Ab12 at 5 ug/ml in PBS with 1% BSA was added to wells and plates were incubated at room temperature for 2 hours. Plates were washed three times using a Skatron 400 Plate Washer with PBS/0.05% Tween 20 and 50 ul of secondary antibody diluted in PBS/0.25% BSA/0.05% Tween 20 added to the wells. For Ab12, goat anti-human IgG (Fc)-HRP (Caltag (Burlingame, Calif.) Cat.#H10507) diluted 1:1000 was used and for Ab 71A (available from the American Type Culture Collection HB 11689, also described in U.S. Pat. No. 6,319,499), goat anti mouse IgG (Fc)-HRP (Jackson Laboratories (West Grove, Pa.) Cat.#115-035-164) diluted 1:5000 was used. After a 1 hour incubation at room temperature, plates were washed three times as before and 50 ul of OPD Developing Reagent (Sigma #P9187) added to each well. Color development was stopped by addition of 50 ul of 1N HCl to the wells and optical density measured at 490 nm on a Victor 1420 Multi-Label Counter.

The target in experiment [3] is T4, full length recombinant human EPO receptor (human, UniProt P19235 25-508).
T4 sequence: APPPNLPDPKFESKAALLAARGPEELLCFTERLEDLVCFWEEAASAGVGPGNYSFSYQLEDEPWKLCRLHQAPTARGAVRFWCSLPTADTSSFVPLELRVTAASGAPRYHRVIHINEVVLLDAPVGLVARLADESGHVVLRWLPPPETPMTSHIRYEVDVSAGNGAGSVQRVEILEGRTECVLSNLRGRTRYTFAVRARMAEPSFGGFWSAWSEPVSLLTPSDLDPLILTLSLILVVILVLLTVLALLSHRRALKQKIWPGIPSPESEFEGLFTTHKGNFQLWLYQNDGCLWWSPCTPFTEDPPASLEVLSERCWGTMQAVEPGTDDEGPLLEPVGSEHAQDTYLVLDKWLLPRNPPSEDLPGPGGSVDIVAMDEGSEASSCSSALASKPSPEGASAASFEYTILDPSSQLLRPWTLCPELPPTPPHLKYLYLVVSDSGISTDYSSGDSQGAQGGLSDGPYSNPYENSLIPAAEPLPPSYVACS
Nature of the experiment: cell-based or functional assay.

B1: ABT2-SCX-254 (antibody, V domains shown)
VH: QVQLVESGGGVVQPGRSLRLSCAASGFTFSSYGMHWVRQAPGKGLEWVAVIWFDGNNKFYADSVKGRFTISRDNSKNTLYLQMNSLRVEDTAVYYCARGGSYWDYWGQGTLVTVSS
VL: DIVMTQTPLFSFVMIGQPASISCRSRQSLVHSDGNTYLNWLQQRPGQPPRLLIYKTSNRFSGVPDRFSGSGAGTDFTLKISRVEAEDVGVYYCMQATQFPITFGQGTRLEIK
In the case of B1, the “Binding (dilution of supernatant)” value in experiment [1] was 8 dilution 1:n.

B2: ABT2-SCX-054 (antibody, V domains shown)
VH: QVQLVESGGGVVQPGRSLRLSCAASGFTFSKYGMHWVRQAPGKGLEWVAVLWYDGSNKYYADSVKGRFTISRDNSKNTLYLQMNSLRAEDTAVYYCARGPYYFDYWGQGTLVTVSS
VL: not shown
In the case of B2, in experiment [1], the “Binding (dilution of supernatant)” value was > 64 dilution 1:n.

B3: ABT2-SCX-022 (antibody, V domains shown)
VH: QVQLVESGGGVVQPGRSLRLSCAASGFTFSSYGMHWVRQAPGKGLEWVVVISYDGSNKYYADSVKGRFTISRDNSKNTLYLQMNSLRVEDTAVYYCARDHGGRYVYDYGMDVWGQGTTVTVSS
VL: DIQMTQSPSSVSASVGDRVSITCRASQGISSWLAWYQQKPGKAPTLLIYAASSLQRGVPSRFSGSGSGTDFTLTISSLQPEDFATYFCQQANSFPFTFGPGTKVDIK
Regarding B3, in experiment [1], the “Binding (dilution of supernatant)” value was > 64 dilution 1:n.

B4: ABT2-SCX-267 (antibody, V domains shown)
VH: QVQLVESGGGVVQPGRSLRLSCAASGFTFSSYGMHWVRQAPGKGLEWVAVISYDGSNKYYADSVKGRFTISRDNSKNTLYLQMNSLRVEDTAVYYCAKDHGGRYVYDYGMDVWGQGTTVTVSS
VL: DIQMTQSPSSVSASVGDRVSITCRASQGIGSWLAWYQQKPGQAPTLLIYAASSLQRGVPSRFSGSGSGTDFTLTINSLQPEDFATYFCQQANSFPFTFGPGTKVDVK
For B4, the “Binding (dilution of supernatant)” value in experiment [1] was > 64 dilution 1:n.

B5: Ab198 (antibody, human IgG2, V domains shown)
VH: QVQLVESGGGVVQPGRSLRLSCVASGFTFSSYGMHWVRQAPGKGLEWVAVISYDGSNKYYADSVKGRFTISRDNSKNTLYLQMNSLRVEDTAVYYCARDHGGRYVYDYGMDVWGQGTTVTVSS
VL: DIQMTQSPSSVSASIGDRVSITCRASQGISSWLAWYQQKPGKAPTLLIYAASTLQRGVPSRFSGSGSGTDFTLTISSLQPEDFATYFCQQANSFPFTFGPGTKVDIK
notes: Human antibody from XenoMouse
As a reminder, the Kd is the free concentration of one partner at which half of the binding sites on the other are occupied at equilibrium, for simple one-to-one binding. The low end stands for a tighter complex, the high end for a looser complex. The molecule B5 showed a Kd in experiment [2] of 13.9 nM. The binding result with peptide SE-3 is “no binding”.

B6: Ab12 (antibody, human IgG2, V domains shown)
VH: QVQLQESGPGLVKPSETLSLTCTVSGASISSYYWSWIRQPPGKGLEWIGYIYYSGSTNYNPSLKSRVTISVDTSKNQFSLKLRSVTAADTAVYYCARERLGIGDYWGQGTLVTVSS
VL: DIQLTQSPSSLSASVGDRVTITCRASQGIRNDLGWYQQKPGKAPKRLIYAASSLQSGVPSRFSGSGSGTEFTLTISSLQPEDFATYYCLQHNTYPPTFGQGTKVEIK
notes: Human antibody from XenoMouse; also called ABT2-SCX-012; AB-ABT2-XG2-012
Turning to B6, in experiment [2], the affinity, expressed as Kd, was 17.5 nM. The “proliferation of F36E cells after storage of Ab12 at 4 C, compared with the EPO control” value in experiment [3] was around 10 fold. Besides, the binding result with peptide SE-3 is reported as “no binding (tested: 5 ug/ml)”.

(Values after patent US20040071694A1 (published 2004).)
